Experiments:
[1] = pH solubility profile of h[Gly2]GLP-2 (precipitation); assay type: physicochemical
Method: (§1) Based on pH solubility profiles, it was determined that a phosphate buffer provides optimal buffering capacity for GLP-2 peptides. […] L-histidine acts as a stabilizing amino acid that increases the length of time that the GLP-2 peptide remains intact prior to degradation.

[2] = Temperature profile / phase transition of h[Gly2]GLP-2; assay type: physicochemical
Method: It has also been discovered that Tween 80®, salt, and arginine are not suitable materials for producing a stable formulation for h[Gly2]GLP-2.
as §1

For h[Gly2]GLP-2, the “pH at which the analog precipitated” value [1] was “less than 5.5”, the phase transition temperature ([2]; depending upon the salt concentration) was 40-55 °C and the “behaviour in the presence of salt” value ([2]; in the presence of salt) was “becomes hydrophobic in the presence of salt”. For the same substance, the “heat-induced and salt-dependent transition temperature” value ([2]; temperature profiles) was “about 40 °C”.
